Reference: paper PMC10980823, “Structural basis of Acinetobacter type IV pili targeting by an RNA virus” (Nature Communications, 2024)
Values joined by “and” are separate entries in the source; they are usually repeats but may differ in a detail not shown here. Identical values can stand only once.

B1: AP205 mature virion (complex)
chain 1: MNMYKWVPESIRDSGEGQPSYSNNGDYAPSGPWVAAGIHTMPQSLRDSMRNSIMVTAQARRDVIGPEWGPDGRFTGYASVIGTPDPKPADIVNKFTVERRPVSNGNFQQRVKAGDIVVAPYTSDGKITVKLVAGQKDISSTPDYDYRIDSSLASSAGFVVAGERWYYTKRHFIIPRYFQNWRMRRRKYVTGWVMPTFYSPKEIFNRLKDSLVPDTGLVTQVWADNNTKRMDFLTAMAEIPQTLSSFLDALGYLGSLIKDFKRRRFFLNKAHQRIRNKLGVSFAERRSQIVSKYDRKIASARKPAIIVKLRQRKEKALKALDKMRVREEKKMIREFATQAASLWLSFRYEIMPLYYQSQDVLDVIANSTSEFMTSRDFVAKAINIGIPLEWNLDQENLVSQPRHNVMVKSKLSPENNIGKTLSVNPFTTAWELLTLSFVVDWFVNFGDVIAGFTGGYSDDSGATASWRFDDKKVFHLKNIPSAMVIVDINFYTRQVIDPRLCGGLAFSPKLNLFRYLDAMSLSWNRSRLKISRAT
chain 2: ANKPMQPITSTANKIVWSDPTRLSTTFSASLLRQRVKVGIAELNNVSGQYVSVYKRPAPKPEGCADACVIMPNENQSIRTVISGSAENLATLKAEWETHKRNVDTLFASGNAGLGFLDPTAAIVSSDTT
B2: AP205 maturation protein (Mat) (natural protein, Acinetobacter phage AP205)
chain: B1 chain 1
notes: maturation protein (Mat) of Acinetobacter phage AP205, 534 amino acids as printed; native protein in the virion, where two copies (inner and outer Mat) form a dimer; Native virion protein; models of both copies are in PDB 8TOC; also called inner Mat; outer Mat; source: in AP205 virions grown on A. gp16, purified (CsCl gradient)
B3: AP205 coat protein (Coat) (natural protein)
chain: B1 chain 2
notes: coat protein (Coat) of Acinetobacter phage AP205; native protein of the capsid shell; also forms T=3 and T=4 icosahedral particles; also called Coat-dimer; Coat shell; source: in AP205 virions and VLPs grown on A. gp16, purified (CsCl gradient)

Key:
[1] = biological target: Acinetobacter genomosp. 16 type IV pilus (T4P) mature pilin (Acinetobacter genomosp. 16 (endogenous)); test: cryo-EM structure; purified AP205 and purified T4P mixed at 1:1 volume ratio at 30 C for 30 min; AP205 with two T4P at 3.6 A, with one T4P at 4.2 A; local maps of inner Mat-T4P at 8.2 A and outer Mat-T4P at 8.6 A
[2] = biological target: the molecule itself; test: cryo-EM structure; single-particle cryo-EM of purified apo AP205; asymmetric reconstruction of the mature virion at 3.1 A; icosahedral T=3 (3.2 A) and T=4 (3.4 A) particles from the same data
[3] = biological target: B2; test: as above; conditions: both partners purified

**Q.** For B1, which stoichiometry N [1] is on record?
**A.** Its stoichiometry N is 2 and 1.

**Q.** How did the “stoichiometry N” value [2] turn out when B2 was run?
**A.** Its value is 2.

**Q.** Does B3 bind [3]?
**A.** Result: binds

**Q.** What about the “stoichiometry N” value [2] of the same binder?
**A.** The value was 178.
